According to patent US20250312444A1 (BEIJING TUO JIE BIOPHARMACEUTICAL, published 2025):
Like-named read-outs stand apart in the source and are kept apart here.

Legend:
Test in all cases: SPR Biacore T200, antibody captured by anti-His, albumin as analyte
rabbit serum albumin = target: T1, rabbit serum albumin (rabbit, UniProt P49065 25-608)
T1 construct: also called Rabbit SA; rabbit albumin
Method: (§1) The anti-HSA antibody 7_Hu_10-6his was transiently expressed in HEK293E cells. After affinity purification with a nickel column, the affinity constants of the antibody for human, monkey, mouse, rat, dog and rabbit albumins were determined using a Biacore T200 (GE Healthcare) instrument. Firstly, amino coupling was performed on a CM5 S series chip (GE, Cat. 29-1049-88) by using an amino coupling kit (GE, Cat. BR-1000-50) and a His capture kit (GE, Cat. 28-9950-56) according to the kit manuals. The surface response value reached about 10000 RU. The chip was then blocked with ethanolamine for later use. The 6His-tagged humanized anti-HSA antibodies were each captured onto the anti-his chip through affinity. Then, different concentrations of human, monkey, mouse, rat, dog and rabbit albumins were flowed over the surface of the chip, and the reaction signals were detected in real-time using the Biacore instrument to obtain the association and dissociation curves. Finally, fitting was performed with a Langmuir 1:1 binding model using BIAevaluation version 4.1, GE software to obtain the affinity constants. The buffer used in the experiment was an HBS-EP solution (10 mM HEPES, 150 mM NaCl, 3 mM EDTA, 0.05% P20, pH 7.4, GE, Cat. #BR-1006-69). 20 After the end of each cycle, the chip was regenerated using glycine-hydrochloric acid (pH 1.5) (GE, Cat. #BR-1003-54).

[1] = target: mouse serum albumin (mSA) (mouse)
Method: as §1

[2] = target: human serum albumin (HSA) (human)
Method: as §1

rat serum albumin = target: T2, rat serum albumin (rat)
T2 chain: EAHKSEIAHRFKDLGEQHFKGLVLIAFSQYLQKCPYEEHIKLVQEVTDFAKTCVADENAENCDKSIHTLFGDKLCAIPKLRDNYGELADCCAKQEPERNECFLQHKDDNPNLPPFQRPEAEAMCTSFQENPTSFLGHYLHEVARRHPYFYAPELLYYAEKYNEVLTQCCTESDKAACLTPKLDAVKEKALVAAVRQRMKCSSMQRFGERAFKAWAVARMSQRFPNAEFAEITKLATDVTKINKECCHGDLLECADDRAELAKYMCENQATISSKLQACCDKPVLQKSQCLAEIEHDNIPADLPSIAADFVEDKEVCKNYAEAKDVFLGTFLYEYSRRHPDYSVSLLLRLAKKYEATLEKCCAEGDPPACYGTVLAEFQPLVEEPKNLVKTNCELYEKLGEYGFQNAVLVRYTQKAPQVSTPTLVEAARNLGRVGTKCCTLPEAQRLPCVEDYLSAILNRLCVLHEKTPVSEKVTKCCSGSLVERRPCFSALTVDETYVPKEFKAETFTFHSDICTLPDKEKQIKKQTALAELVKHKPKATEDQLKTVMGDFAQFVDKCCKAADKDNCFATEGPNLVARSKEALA
Method: as §1

[3] = target: T3, monkey serum albumin (CySA) (monkey)
T3 chain: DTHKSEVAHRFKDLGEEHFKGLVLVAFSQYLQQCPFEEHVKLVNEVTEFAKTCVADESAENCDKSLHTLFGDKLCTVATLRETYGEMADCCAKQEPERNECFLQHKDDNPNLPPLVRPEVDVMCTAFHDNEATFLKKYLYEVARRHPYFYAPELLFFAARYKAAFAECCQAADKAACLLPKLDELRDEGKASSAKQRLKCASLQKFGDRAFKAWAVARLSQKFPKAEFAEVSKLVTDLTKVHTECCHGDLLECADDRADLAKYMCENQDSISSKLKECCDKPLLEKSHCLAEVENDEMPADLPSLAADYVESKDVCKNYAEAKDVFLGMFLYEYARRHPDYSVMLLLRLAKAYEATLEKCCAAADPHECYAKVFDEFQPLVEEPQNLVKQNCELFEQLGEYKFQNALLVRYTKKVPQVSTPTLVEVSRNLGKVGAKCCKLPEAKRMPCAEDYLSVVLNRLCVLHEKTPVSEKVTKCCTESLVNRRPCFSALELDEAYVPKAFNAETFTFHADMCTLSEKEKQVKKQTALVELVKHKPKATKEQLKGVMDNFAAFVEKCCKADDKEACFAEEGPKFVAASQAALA
Method: as §1

dog serum albumin = target: T4, dog serum albumin (dog, UniProt P49822 25-608)
T4 construct: also called Dog SA; dog albumin
Method: as §1

[4] = target: mouse serum albumin (mSA) (mouse); remark: listed apart in the source
Method: as §1, with “The” for “The anti-HSA antibody 7_Hu_10-6his was transiently expressed in HEK293E cells. After affinity purification with a nickel column, the”, “6His-tagged humanized anti-HSA antibodies” for “antibody”, “monkey” for “monkey, mouse, rat, dog”, “mouse” for “rabbit”, “#BR-1006-69).” for “#BR-1006-69). 20”

[5] = target: human serum albumin (HSA) (human); remark: listed apart in the source
Method: as §1, with “The” for “The anti-HSA antibody 7_Hu_10-6his was transiently expressed in HEK293E cells. After affinity purification with a nickel column, the”, “6His-tagged humanized anti-HSA antibodies” for “antibody”, “monkey” for “monkey, mouse, rat, dog”, “mouse” for “rabbit”, “#BR-1006-69).” for “#BR-1006-69). 20”

[6] = target: T3, monkey serum albumin (CySA)
Method: as §1, with “The” for “The anti-HSA antibody 7_Hu_10-6his was transiently expressed in HEK293E cells. After affinity purification with a nickel column, the”, “6His-tagged humanized anti-HSA antibodies” for “antibody”, “monkey” for “monkey, mouse, rat, dog”, “mouse” for “rabbit”, “#BR-1006-69).” for “#BR-1006-69). 20”

B1: #7_Hu_10-6His (VHH)
VHH: EVQLLESGGGLVQPGGSLRLSCAASGFTFLTSCMGWFRQAPGKEREGVSSIYTVGGSTFYTNSVKGRFTISRDNSKNTLYLQMNSLRAEDTAVYYCAAGSPARCRLRDPTTFDYWGQGTLVTVSS
binding result (rabbit serum albumin): no binding | Kd [1]: 653 nM | koff [1]: 0.0254 s⁻¹ | kon [1]: 38900 M⁻¹ s⁻¹ | Kd [2]: 10.6 nM | koff [2]: 0.000683 s⁻¹ | kon [2]: 64700 M⁻¹ s⁻¹ | Kd (rat serum albumin): 158 nM | koff (rat serum albumin): 0.00461 s⁻¹ | kon (rat serum albumin): 29200 M⁻¹ s⁻¹ | Kd [3]: 14.5 nM | koff [3]: 0.000697 s⁻¹ | kon [3]: 47900 M⁻¹ s⁻¹ | Kd (dog serum albumin): 342 nM | koff (dog serum albumin): 0.0211 s⁻¹ | kon (dog serum albumin): 61700 M⁻¹ s⁻¹ | Kd [4]: 328 nM | koff [4]: 0.0196 s⁻¹ | kon [4]: 59700 M⁻¹ s⁻¹ | Kd [5]: 11.5 nM | koff [5]: 0.000347 s⁻¹ | kon [5]: 30100 M⁻¹ s⁻¹ | Kd [6]: 31 nM | koff [6]: 0.000545 s⁻¹ | kon [6]: 17600 M⁻¹ s⁻¹
